Assay results from the supplement of paper PMC11246515.
± gives the standard deviation of the averaged measurements.

Assay: total protein half-life in vivo (active degradation + dilution); higher = more stable protein
[1] = E. coli NCM3722 delta-clpP delta-lon delta-hslV, growth: N-lim chemostat, doubling time 6 h
[2] = E. coli NCM3722 delta-clpP, growth: N-lim chemostat, doubling time 6 h
[3] = E. coli NCM3722 delta-hslV, growth: N-lim chemostat, doubling time 6 h
[4] = E. coli NCM3722 delta-lon, growth: N-lim chemostat, doubling time 6 h
[5] = E. coli NCM3722 delta-smpB, growth: N-lim chemostat, doubling time 6 h
[6] = wild type E. coli NCM3722, growth: C-lim chemostat, doubling time 3 h
[7] = wild type E. coli NCM3722, growth: C-lim chemostat, doubling time 6 h
[8] = wild type E. coli NCM3722, growth: C-lim chemostat, doubling time 12 h
[9] = wild type E. coli NCM3722, growth: N-lim chemostat, doubling time 6 h
[10] = wild type E. coli NCM3722, growth: N-lim chemostat, doubling time 12 h
[11] = wild type E. coli NCM3722, growth: P-lim chemostat, doubling time 6 h
[12] = wild type E. coli NCM3722, growth: P-lim chemostat, doubling time 12 h

Sequence	total protein half-life in vivo [1]	total protein half-life in vivo [2]	total protein half-life in vivo [3]	total protein half-life in vivo [4]	total protein half-life in vivo [5]	total protein half-life in vivo [6]	total protein half-life in vivo [7]	total protein half-life in vivo [8]	total protein half-life in vivo [9]	total protein half-life in vivo [10]	total protein half-life in vivo [11]	total protein half-life in vivo [12]
MSSMTTTDNKAFLNELARLVGSSHLLTDPAKTARYRKGFRSGQGDALAVVFPGSLLELWRVLKACVTADKIILMQAANTGLTEGSTPNGNDYDRDVVIISTLRLDKLHVLGKGEQVLAYPGTTLYSLEKALKPLGREPHSVIGSSCIGASVIGGICNNSGGSLVQRGPAYTEMSLFARINEDGKLTLVNHLGIDLGETPEQILSKLDDDRIKDDDVRHDGRHAHDYDYVHRVRDIEADTPARYNADPDRLFESSGCAGKLAVFAVRLDTFEAEKNQQVFYIGTNQPEVLTEIRRHILANFENLPVAGEYMHRDIYDIAEKYGKDTFLMIDKLGTDKMPFFFNLKGRTDAMLEKVKFFRPHFTDRAMQKFGHLFPSHLPPRMKNWRDKYEHHLLLKMAGDGVGEAKSWLVDYFKQAEGDFFVCTPEEGSKAFLHRFAAAGAAIRYQAVHSDEVEDILALDIALRRNDTEWYEHLPPEIDSQLVHKLYYGHFMCYVFHQDYIVKKGVDVHALKEQMLELLQQRGAQYPAEHNVGHLYKAPETLQKFYRENDPTNSMNPGIGKTSKRKNWQEVE	6.43 ± 0.27 h	6.81 ± 1 h	5.82 ± 0.25 h	5.72 ± 0.37 h	5.06 ± 0.94 h	1.97 ± 0.11 h	4.28 ± 0.33 h	10 ± 0.23 h	5.98 ± 0.4 h	10.2 ± 0.66 h	4.92 ± 0.78 h	9.79 ± 1.1 h
MSSNFRHQLLSLSLLVGIAAPWAAFAQAPISSVGSGSVEDRVTQLERISNAHSQLLTQLQQQLSDNQSDIDSLRGQIQENQYQLNQVVERQKQILLQIDSLSSGGAAAQSTSGDQSGAAASTTPTADAGTANAGAPVKSGNANTDYNAAIALVQDKSRQDDAMVAFQNFIKNYPDSTYLPNANYWLGQLNYNKGKKDDAAYYFASVVKNYPKSPKAADAMFKVGVIMQDKGDTAKAKAVYQQVISKYPGTDGAKQAQKRLNAM	5.65 ± 0.36 h	–	5.26 ± 0.17 h	5.96 ± 0.72 h	5.27 ± 1.5 h	–	6.4 ± 1 h	8.8 ± 1.9 h	5.61 ± 0.1 h	11.3 ± 0.16 h	5.31 ± 1.9 h	11.6 ± 0.52 h
MSSQYLRIFQQPRSAILLILGFASGLPLALTSGTLQAWMTVENIDLKTIGFFSLVGQAYVFKFLWSPLMDRYTPPFFGRRRGWLLATQILLLVAIAAMGFLEPGTQLRWMAALAVVIAFCSASQDIVFDAWKTDVLPAEERGAGAAISVLGYRLGMLVSGGLALWLADKWLGWQGMYWLMAALLIPCIIATLLAPEPTDTIPVPKTLEQAVVAPLRDFFGRNNAWLILLLIVLYKLGDAFAMSLTTTFLIRGVGFDAGEVGVVNKTLGLLATIVGALYGGILMQRLSLFRALLIFGILQGASNAGYWLLSITDKHLYSMGAAVFFENLCGGMGTSAFVALLMTLCNKSFSATQFALLSALSAVGRVYVGPVAGWFVEAHGWSTFYLFSVAAAVPGLILLLVCRQTLEYTRVNDNFISRTAYPAGYAFAMWTLAAGVSLLAVWLLLLTMDALDLTHFSFLPALLEVGVLVALSGVVLGGLLDYLALRKTHLT [P0AE16]	–	5.97 h	–	–	6.24 h	–	4.45 h	4.64 h	6.55 h	12.4 ± 4.7 h	–	10.3 ± 1.2 h
MSSRNNPARVAIVMGSKSDWATMQFAAEIFEILNVPHHVEVVSAHRTPDKLFSFAESAEENGYQVIIAGAGGAAHLPGMIAAKTLVPVLGVPVQSAALSGVDSLYSIVQMPRGIPVGTLAIGKAGAANAALLAAQILATHDKELHQRLNDWRKAQTDEVLENPDPRGAA [P0AG18]	5.15 ± 0.26 h	4.94 ± 0.41 h	4.8 ± 0.085 h	4.93 ± 0.088 h	4.71 ± 0.3 h	2.77 ± 0.034 h	5.47 ± 0.46 h	9.5 ± 0.76 h	4.67 ± 0.13 h	6.68 ± 0.46 h	5.68 ± 0.13 h	10.9 ± 0.31 h
MSSRVLTPDVVGIDALVHDHQTVLAKAEGGVVAVFANNAPAFYAVTPARLAELLALEEKLARPGSDVALDDQLYQEPQAAPVAVPMGKFAMYPDWQPDADFIRLAALWGVALREPVTTEELASFIAYWQAEGKVFHHVQWQQKLARSLQIGRASNGGLPKRDVNTVSEPDSQIPPGFRG [P0A8J2]	4.71 ± 0.31 h	4.26 h	1.78 ± 0.14 h	–	–	–	3.49 h	5.15 ± 0.3 h	–	2.93 ± 0.94 h	2.68 ± 0.39 h	5.6 ± 0.28 h
MSSVSTSGSGAPKSSFSFGRIWDQYGMLVVFAVLFIACAIFVPNFATFINMKGLGLAISMSGMVACGMLFCLASGDFDLSVASVIACAGVTTAVVINLTESLWIGVAAGLLLGVLCGLVNGFVIAKLKINALITTLATMQIVRGLAYIISDGKAVGIEDESFFALGYANWFGLPAPIWLTVACLIIFGLLLNKTTFGRNTLAIGGNEEAARLAGVPVVRTKIIIFVLSGLVSAIAGIILASRMTSGQPMTSIGYELIVISACVLGGVSLKGGIGKISYVVAGILILGTVENAMNLLNISPFAQYVVRGLILLAAVIFDRYKQKAKRTV [P0AE26]	–	–	–	–	–	2.54 ± 0.33 h	4.04 ± 0.19 h	7.44 ± 0.65 h	–	–	–	–
MSSYANHQALAGLTLGKSTDYRDTYDASLLQGVPRSLNRDPLGLKADNLPFHGTDIWTLYELSWLNAKGLPQVAVGHVELDYTSVNLIESKSFKLYLNSFNQTRFNNWDEVRQTLERDLSTCAQGKISVALYRLDELEGQPIGHFNGTCIDDQDITIDNYEFTTDYLENATCGEKVVEETLVSHLLKSNCLITHQPDWGSLQIQYRGRQIDREKLLRYLVSFRHHNEFHEQCVERIFNDLLRFCQPEKLSVYARYTRRGGLDINPWRSNSDFVPSTTRLVRQ	5.36 ± 0.64 h	5.85 ± 1.8 h	5 ± 0.28 h	4.54 ± 0.56 h	4.09 ± 0.3 h	2.81 ± 0.26 h	5.542 ± 0.011 h	8.79 ± 1.1 h	4.41 ± 0.24 h	7.06 ± 0.16 h	5.622 ± 0.049 h	10.92 ± 0.053 h
